# Results as given in the DeepSol protein solubility set.
# Experiment: soluble on expression in E. coli; label from the status in PepcDB or PDB records
row,Sequence,soluble on expression in E. coli
1,MITHAQTILCLDLGSKTGWAICGADGHIFSGVMNFQPRRFEGGGMRYLRFKQWLTEMKMTARRIDAVYFEEVRRHVGTDAAHVYGGLLATLTAWCEHHQIPYEGIPVGTIKKETTGKGNASKEEMIKAVCAKGHAPKDDNEADALAILYLMKEGGVYVQ,not soluble
2,MDEQEFRKQLTLKPVEEEHIDQFNELLSYVFQVTEADIEESGFENKRAFIKSKQPILELSKVFGWFHENQLISQIAIYPCEVNIHGALYKMGGVTGVGTYPEYANHGLMKDLIQTALEEMRQDKQWISYLFPYNIPYYRRKGWEIMSDKLSFKIRDTQLPKTVPVPGMIERLAVDHPDVFDVYARFARQNHGALIRSAFNWEEYWRFENEEERTAAVYYGANQEPLGVLFYWVADEVFHIKEMFYLNQEARNGLWNFITAHFSMVYWVKGDIYKNEPLAFLLEDSQIKESIEPYYMARIVDVKAFLENFPFESTAKPFHFVVKDPVAEWNNGIFGLIWDENDQVTITDEPLGTAVHLDIQTLTCLVMNYRRPSYLHRIERIDTDKETLNSLERIFPDQEAYFSDYF,soluble
3,MAKVPDLFEDLKNCYSENEDYSSAIDHLSLNQKSFYDASYGSLHETCTDQFVSLRTSETSKMSNFTFKESRVTVSATSSNGKILKKRRLSFSETFTEDDLQSITHDLEETIQPRSAPYTYQSDLRYKLMKLVRQKFVMNDSLNQTIYQDVDKHYLSTTWLNDLQQEVKFDMYAYSSGGDDSKYPVTLKISDSQLFVSAQGEDQPVLLKELPETPKLITGSETDLIFFWKSINSKNYFTSAAYPELFIATKEQSRVHLARGLPSMTDFQIS,soluble
4,MRGSHHHHHHSNFAIILAAGKGTRMKSDLPKVLHKVAGISMLEHVFRSVGAIQPEKTVTVVGHKAELVEEVLAGQTEFVTQSEQLGTGHAVMMTEPILEGLSGHTLVIAGDTPLITGESLKNLIDFHINHKNVATILTAETDNPFGYGRIVRNDNAEVLRIVEQKDATDFEKQIKEINTGTYVFDNERLFEALKNINTNNAQGEYYITDVIGIFRETGEKVGAYTLKDFDESLGVNDRVALATAESVMRRRINHKHMVNGVSFVNPEATYIDIDVEIAPEVQIEANVILKGQTKIGAETVLTNGTYVVDSTIGAGAVITNSMIEESSVADGVTVGPYAHIRPNSSLGAQVHIGNFVEVKGSSIGENTKAGHLTYIGNCEVGSNVNFGAGTITVNYDGKNKYKTVIGDNVFVGSNSTIIAPVELGDNSLVGAGSTITKDVPADAIAIGRGRQINKDEYATRLPHHPKNQ,soluble
5,MPAKPQLISPAGDWTSMRAALDAGADAVYFGAEGFNMRAASKGFSPGDFGGIARLCRSHGAKAYLALNSVIYDAELDEVDRTAAAAKAAGLDAVICWDLAVIEACRRHEMPIHLSTQASVSNINALRFYASLGARMIVLARELTLEQTAAITKCIAAEKLPVTVESFVHGAMCVAISGRCFLSQELFGRSANRGECVQPCRRSYRIADVEEGFELELGSNYVMSPKDLCALPFLDKLFDAGIGAFKIEGRNRSPEYVATTTAAYRKAIDFIAAHRNDKDFDEAYRSLTDRLQNDLVRVYNRGFSEGFFFGKPADAWTKHSGSAATETKSYVGVVRKYFPKAGVAEILVHAPSVDSGVRLSIQGPATGLVTVPDAELHLDGQLANRIEQGQIFTVRCDRVRKNDKVYVLLKN,not soluble
6,MGSDKIHHHHHHMKSIMDSLFDSPVQTARSSSDSDAHNFFKAGPYAPLAARMRPQSLDEVVGQRHLLDSGKPLQRLIAGSGDASVILYGPPGTGKTTIASLISAGTGHEFVGLSALNSGVKEIREVIDQARRNLIHGKRTVLFIDEVHRFSKTQQDALLAAVENRTVLLVAATTENPSFSVVAPLLSRSLILQLKPLTHDDIKTVLLHALQDKRGLDNRITISDEALEQLVLLSGGDARRSLTYLEAASESLADGEELTPEIIRHNVDKAIVRYDRDGDQHYDVVSAFIKSMRGSDVDAALHYLARMIDAGEDPRFIARRLVIHASEDVGMADPQALSVAVAASQAVALIGMPEARINLAQATIHLATAPKSNAVITAIDAALADVKQGKTGPVPAHLRDGHYAGAKQLGNAVGYKYPHDDPRGIVEQQYIPNGLEDVVYYRPSEHGAEQRIESYLGKLRRIVRGQRR,not soluble
7,MSLGAGQPLGGYAEDLEGRQADLPKYSRANVRIVFAAVFPESNVYQGGEGYPTPSSSRLLLLDQVKTYYALSSIHGVEIIESWRSAQEVLEAPRWRLGLLLHLEGADALADILDLELLHRLGFRSLGLTWNHDNRWAASCKTRRDYGLTQSGEDLVKKAAELGVIIDLAHASDKTVADAASASPKPVIVSHANFRWKVDSPRNVGEEAVEAVVSKGGVIGYSLISTLITRGRHPTLHDVASQMAEFVEVYGHRHLAIGTDYHGLLDIRPPTGLESIDRLPRLLEALADAGLSDRQIEAIAYGNIARVIREVLPGSEGHHHHHH,soluble
8,MADLFNKHLKKATNRTKEKLLEGIGKAKATQDEVFDQHAANLNKQSKSCEKLHKDVKNYSSALRTLLSAEKQLRDTIRDAYEPEWPDREHLTAIFDNLDIQTNELEKTVCDDLPQTVTQYVNQFPDLKKKIEKRGRKLVDYDSAKNSFNSVKASSKKDNDPKLAKATMELQAAEQMYTEMNNELLEILPAVFDSRITFFVDTLQTLFNANSVYQTDASKFHKQIVMQLDKLGESMDYLRVARPEARALTPIDTTSLASSDAPATPDQNKSDNSSLRQTPSPSVLPSPVPAPMAKPRESVVSMANSTNPFDDDDAEHDKEATPTDVEEKFEAKVYPKLNAQQTAAAEQAIAAAKREKKEASNPFDDEDDESTEVEEAPKKKDPEPTPKPLDGITNEKRKTLYFVTSTHNYKAVDTDELSFEQGVQIKVIEANEDDQLDDGWRLGELEDGKRGVFPENFTKKV,not soluble
9,MRPMTIDIDELAFALDTPGIDHYLDLYSGKVLLISAEAPDPELDALLENEPERLLLIDPLSTTQSLGLMQDFLREVEEPHAYATLANALQSRKPFKAFKHSLMEYPELLQDWYRYQNERLREWALDWLEDNDIQPAARQSPTSLLPPPGKPFA,not soluble
10,MKTIYIYKGSIPEDKKKGDNAIWVTEKKIIDALEKAANSNGESTQSNPKTIALQAAKKETKKSNKKESKTIGYTTTGYVNADGKHIFDTDRINNERFDRKIIIGATLETLDQSSTLQSGEAIVLPAPGKYKSSDQKTVMTAQGPKIIGIHANAKENEETQKFVNWF,soluble
11,ARSSRFTRQADETLTDSEGSGLQFINFDEGSASNPIIARDQEGSGQMYDEEGSGNTLLFDSETPIQVMNVTGTEAEPTDSKVFNQSINITDSDVETLVIKVHLPQKTTSQLLDDLKDDTAQQTNPINTLDTAVSLTSMLNELLGKIQDATTQ,not soluble
12,MTAPSLDNWEKRKRFVELPRKRQMAFIDTGGPGPVLLMLHGFSDTSRSFSIIEPYFQEYRLIAPDLPGHGASSVGHGFHVADFAETIDRFLTLMGVSRFFVLGHSMGAMTAIELAARRSSSVRGLALISGTLEPDFGTESKLARDILALRDPIKPAGGFLHDWYSCSRPVNEEFLFRMKRDAANMAATTWHGVLKAFAETDLHYSASKINVPVLCLAGSEDPLFDDSHRQQLFEAFPLAQTVTMPGHGHNPHWENPQGVSTLVTEFFAEVMTDASPVRVETAADKR,not soluble
13,MEGVRLGWRGLSREGRGGAWHAAERTRPCTQRVPPSSQKIALQLKATLENVTNLRPVGEDFRWYLKMKCGNCGEISEKWQYIRLMDSVALKGGRGSASMVQKCKLCARENSIDILSSTIKAYNAEDNEKFKTIVEFECRGLEPVDFQPQAGFAADGVESGTVFSDINLQEKDWTDYDEKAQESVGIFEVTHQFVKC,soluble
14,MGSDKIHHHHHHMADNETIPSCANCSAVWQKSGTTNCWSSPDNRPGQPANCPSKTSPDIIDESFAEYRGDGDDARLARVAARVEGLCYQKMQGSDAVVARWTRVEDTVALAKLMGWTKVGIATCIGLLEETKQLVTILEAQGLEPASVCCKSGSIDKLELGLEESDKVRPGTFEPACNPIAQAEILNRCGTQMNIIVGLCVGHDMLFTKHSKAPVTTLVCKDRVTGHNPAAVLYGQNFYYKRLKVQPVAVPTEEK,not soluble
